Consider four molecules from PMC8973293.

One may read the Kd as the free concentration of one partner at which half of the binding sites on the other are occupied at equilibrium, for simple one-to-one binding. Read a low Kd as tighter binding.

Sequences and labels used below:
B1: HuE71-IgG1 (antibody, V domains shown)
VH: QVQLVQPGDELVKPGASVKLSCKASGYTFTSYWMQWVKQRPGQGLEWIGEINPSNGRTNYNEMFKSKAVLSVDKSVSTAYMQLSSLTAEDTAVYYCALYDGYYAMDYWGQGTLVTVSS
VL: DIVMTQSPSSLAVSVGERVTMSCKSSQSLLYSSNQKNYLAWYQQKPGQSPKLLIYWASTRESGVPDRFSGSGSGTDFTLTISSVKAEDVALYYCQQYHSYPFTFGQGTKLEIK
B2: Desferrioxamine-HuE71-IgG1 (antibody, V domains shown)
VH: B1 VH
VL: B1 VL
B3: HuE71-IgG1-Afuco (antibody, V domains shown)
VH: B1 VH
VL: B1 VL
B4: Desferrioxamine-HuE71-IgG1-Afuco (antibody, V domains shown)
VH: B1 VH
VL: B1 VL

The target of the first test is human FcγRIIIa-158V (human). Put plainly: SPR; Biacore T200; analysis of Fc-Fc receptor binding; who was immobilised and the conditions are not given.
Consider B1, for which the Kd amounted to 873 nM.

The molecule B2 came in with a Kd of 664 nM.

In the case of B3, the Kd is 286 nM.

The molecule B4 gave a Kd of 294 nM.

Another test addresses murine FcγRIV (mouse). The description is as above.
The molecule B1 gave a dissociation constant Kd of 724 nM.

B2 returned a dissociation constant Kd of 539 nM.

Molecule B3 returned an equilibrium dissociation constant (Kd) of 227 nM.

For the molecule B4, the Kd turned out to be 219 nM.
